The chains are these.
B1: VHH S-20a (#2352, SEQ ID NO:11) (VHH)
VHH: DVQLQASGGGLVQAGDSLRLSCSASGLTFSSYAMGWFRQAPGKEREFVAAISWANGGSTVYADPVKGRFTISRDNAKNTVYLQMNSLKPEDTAVYSCAAADQRVGYIEYYSGSSGKEYDYWGQGTQVTVSS
B2: VHH L+18a (#2173, SEQ ID NO:5) (VHH)
VHH: DVQLQASGGGLVQAGGSMRLSCAASGFTFDEFAIGWFRQAPGKEREAVSCIRSSDGSTWYADSVKGRFTISSDNAKNTVTLRMNSLKPEDTADYTCAALGSGYGCSLFTTTVGMDYWGKGTLVTVSS
B3: VHH L-15a (#2169, SEQ ID NO:3) (VHH)
VHH: DVQLQESGGGLVQAGGSLRLSCAASRSLRSIAVMGWFRQAPGKQREYVARITSGGYTDYADSVKGRFTIFDDSANNTVYLQMTSLKPEDTAVYHCAAGGFTEAYSGTYYPDSWGQGTQVTVSS
B4: VHH L-14 (#2622, SEQ ID NO:2) (VHH)
VHH: DVQLQASGGGLVPAGGSLRLSCAASGHSFSSLDMAWFRQAPGREREFVAQISWSGSHTYYQDAVKGRFTISRDSAKNTGYLQMTNLKPEDTAVYYCAATYRPNTFTPAEYDYWGQGTQVTVSA

T1 sequence (P16154 whole entry): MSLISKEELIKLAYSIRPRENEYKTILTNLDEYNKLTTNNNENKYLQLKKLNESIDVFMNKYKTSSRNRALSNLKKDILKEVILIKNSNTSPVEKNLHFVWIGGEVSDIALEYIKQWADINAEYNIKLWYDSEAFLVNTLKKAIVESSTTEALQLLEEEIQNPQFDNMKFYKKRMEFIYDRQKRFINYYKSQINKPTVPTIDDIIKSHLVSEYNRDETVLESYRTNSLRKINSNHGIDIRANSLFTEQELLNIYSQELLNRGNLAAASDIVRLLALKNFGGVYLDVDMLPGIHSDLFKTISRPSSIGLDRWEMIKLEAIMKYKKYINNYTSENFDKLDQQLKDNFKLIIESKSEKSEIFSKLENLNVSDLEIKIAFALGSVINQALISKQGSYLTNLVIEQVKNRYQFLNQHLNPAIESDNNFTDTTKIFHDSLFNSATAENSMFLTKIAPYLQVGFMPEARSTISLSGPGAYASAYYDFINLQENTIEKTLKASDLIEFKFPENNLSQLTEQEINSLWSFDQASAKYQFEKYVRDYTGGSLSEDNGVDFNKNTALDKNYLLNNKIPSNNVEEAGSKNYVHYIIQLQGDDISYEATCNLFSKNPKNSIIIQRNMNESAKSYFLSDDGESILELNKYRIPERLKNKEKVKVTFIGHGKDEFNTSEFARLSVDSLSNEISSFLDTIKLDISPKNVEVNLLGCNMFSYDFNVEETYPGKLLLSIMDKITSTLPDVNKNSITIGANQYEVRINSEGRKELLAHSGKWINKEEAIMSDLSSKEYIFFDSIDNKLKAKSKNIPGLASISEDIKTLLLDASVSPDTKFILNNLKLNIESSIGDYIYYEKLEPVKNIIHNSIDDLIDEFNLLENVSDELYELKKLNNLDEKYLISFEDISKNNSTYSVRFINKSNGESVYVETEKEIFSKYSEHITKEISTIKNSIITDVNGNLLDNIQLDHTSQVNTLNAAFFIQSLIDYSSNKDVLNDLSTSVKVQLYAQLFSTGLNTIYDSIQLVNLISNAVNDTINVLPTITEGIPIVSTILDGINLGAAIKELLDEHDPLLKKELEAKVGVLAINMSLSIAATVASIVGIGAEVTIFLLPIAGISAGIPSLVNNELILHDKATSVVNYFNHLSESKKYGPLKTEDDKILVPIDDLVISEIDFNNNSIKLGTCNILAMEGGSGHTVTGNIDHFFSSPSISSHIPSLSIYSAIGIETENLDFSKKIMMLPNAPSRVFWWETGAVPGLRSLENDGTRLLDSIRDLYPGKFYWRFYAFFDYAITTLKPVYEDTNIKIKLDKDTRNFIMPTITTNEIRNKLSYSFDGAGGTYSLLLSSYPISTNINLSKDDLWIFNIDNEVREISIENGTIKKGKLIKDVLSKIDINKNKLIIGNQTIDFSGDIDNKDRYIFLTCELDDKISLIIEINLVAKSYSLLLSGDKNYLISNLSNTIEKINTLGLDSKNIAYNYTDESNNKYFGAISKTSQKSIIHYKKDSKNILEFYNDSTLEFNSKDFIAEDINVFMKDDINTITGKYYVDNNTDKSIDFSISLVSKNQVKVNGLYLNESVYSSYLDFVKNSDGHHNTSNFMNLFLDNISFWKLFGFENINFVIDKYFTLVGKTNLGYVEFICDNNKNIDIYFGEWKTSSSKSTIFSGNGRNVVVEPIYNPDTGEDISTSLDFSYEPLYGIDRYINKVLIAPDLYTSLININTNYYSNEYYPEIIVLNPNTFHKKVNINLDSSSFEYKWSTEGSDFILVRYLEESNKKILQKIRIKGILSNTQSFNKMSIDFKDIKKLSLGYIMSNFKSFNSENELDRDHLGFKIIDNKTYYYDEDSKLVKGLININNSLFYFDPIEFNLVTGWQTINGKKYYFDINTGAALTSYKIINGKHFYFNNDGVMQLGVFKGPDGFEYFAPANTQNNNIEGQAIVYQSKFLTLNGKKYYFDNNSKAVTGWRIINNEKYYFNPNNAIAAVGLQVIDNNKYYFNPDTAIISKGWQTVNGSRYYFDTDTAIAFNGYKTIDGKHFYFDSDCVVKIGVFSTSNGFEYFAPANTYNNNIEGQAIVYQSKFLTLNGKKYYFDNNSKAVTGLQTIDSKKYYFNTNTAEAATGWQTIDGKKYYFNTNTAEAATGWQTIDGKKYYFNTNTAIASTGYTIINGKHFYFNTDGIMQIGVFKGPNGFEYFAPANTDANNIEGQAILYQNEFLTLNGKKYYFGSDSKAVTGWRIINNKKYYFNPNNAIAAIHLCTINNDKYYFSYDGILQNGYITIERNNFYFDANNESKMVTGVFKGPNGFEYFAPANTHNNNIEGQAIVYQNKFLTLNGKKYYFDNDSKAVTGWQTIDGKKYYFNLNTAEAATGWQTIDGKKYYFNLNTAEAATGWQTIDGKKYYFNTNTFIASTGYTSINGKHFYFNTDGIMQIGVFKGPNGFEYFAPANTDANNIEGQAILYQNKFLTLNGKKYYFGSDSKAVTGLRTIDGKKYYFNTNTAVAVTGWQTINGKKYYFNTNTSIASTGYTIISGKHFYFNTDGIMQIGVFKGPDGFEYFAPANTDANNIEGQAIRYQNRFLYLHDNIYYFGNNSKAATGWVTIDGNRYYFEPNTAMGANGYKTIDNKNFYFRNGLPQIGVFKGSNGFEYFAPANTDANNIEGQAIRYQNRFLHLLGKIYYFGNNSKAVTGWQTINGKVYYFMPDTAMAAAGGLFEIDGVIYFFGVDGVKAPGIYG

This experiment concerns the target T1, ToxA-Holotoxin of Clostridium difficile (Clostridium difficile, UniProt P16154 1-2710).
T1 construct: also called Toxin A
Put plainly: ELISA, monovalent VHH on coated antigen, anti-myc detection.
Take B1: the binding result is given as “no binding (tested: 8-1000 ng VHH)”.

Turning to B2, the binding result is given as “no binding (tested: 8-1000 ng VHH)”.

For B3, the binding result is given as “no binding (tested: 8-1000 ng VHH)”.

Regarding B4, the binding result is “no binding (tested: 8-1000 ng VHH)”.

Values taken from patent WO2013087874A1 (dated 2013).
